{
  "source": "patent US20210162028A1",
  "about": "“Methods for Inducing Intermittent Fasting and Modulating Autophagy” (The Hong Kong Polytechnic University, priority 2019, published 2021)",
  "key": {"[1]": {"assay": "Fat pad and organ mass at end of treatment", "type": "in vivo, mouse", "conditions": "DIO C57BL/6J male mice on HFD, about 600 U once a week, 34 weeks", "from_the_text": "Other than WAT and BAT, obesity is associated with excessive accumulation of lipids in the liver (hepatic steatosis). Indeed, the liver of vehicle-treated DIO mice was markedly enlarged (FIG. 7A), with a mass about 3 times (4.68 g) that of the lean control (1.73 g) (FIG. 7B).\nOther than liver, obesity is also commonly associated with lipid accumulation in the kidney (renal steatosis) and heart (cardiac steatosis), causing lipotoxicity and dysfunction of these organs. Indeed, there was an increase in kidney and heart mass in DIO mice treated with vehicle (FIG. 8A and FIG. 9A)."}, "[2]": {"assay": "Barnes maze test for spatial learning and memory", "type": "in vivo, mouse", "conditions": "DIO C57BL/6J male mice on HFD; weekly, at 43-44 weeks of treatment", "procedure": "To determine whether N-ABD094-rhArg [SEQ ID NO: 50], which can induce repetitive intermittent fasting cycles, has beneficial effects on cognitive performance, the Barnes maze test was conducted over ten days to evaluate spatial learning and memory function. The test was performed on a flat circular platform (100 cm in diameter, 1.5 cm thick, elevated 40 cm above the floor) with twenty evenly-spaced holes (7 cm in diameter) distributed around the circumference, and an escape box was placed under one of the holes. Prior to experimentation, each mouse was guided to the specific hole that was positioned over the escape box and left for 180 seconds. Subsequently, each mouse was trained to find the escape hole by placing the mouse in the center of the platform under a small black chamber for three seconds, the chamber was then lifted, and mouse was allowed to find the escape hole within 180 seconds. The platform was brightly illuminated and cooled using a desk fan as adverse stimuli. If the mouse was unable to find the target hole in the allowed time, it was guided to the escape box. Two trials were performed each day for four consecutive days as training period, after which the short- and long-term spatial memory of the mouse was probed on Day 5 and Day 10 respectively, by removing the escape box and allowing them to explore the platform for a full 180 seconds. Each trial was recorded directly over the platform. For each trial on Day 1 to 4, the time required to find the escape hole and exit the platform, and the type of exploratory pattern (random, serial, or direct) in exploring were recorded. For each probe trial on Day 5 and 10, the number of times the mice investigated each of the twenty holes was recorded over 180 seconds, with an instance of investigation defined as the localization of the snout inside a given hole.\nSpatial memory loss is a prominent feature in rodent models of type 2 diabetes and obesity [Boitard et al., 2014; Underwood and Thompson, 2016]. To investigate whether arginase treatment could prevent spatial memory loss in mice fed a HFD, DIO C57BL/6J male mice were subjected to assessment of spatial memory by Barnes maze test at 43 weeks after receiving weekly administration of N-ABD094-rhArg (SEQ ID NO: 50) starting from 17-week old."}, "[3]": {"assay": "Glucose tolerance test (GTT)", "type": "in vivo, mouse"}, "[4]": {"system": "primary culture of mouse hypothalamic neurons", "assay": "Western blot of primary culture of mouse hypothalamic neurons", "type": "cell-based", "conditions": "2 U/mL", "from_the_text": "The arcuate nucleus in the hypothalamus has received extensive attention as an integrator and regulator of energy homeostasis and appetite. These neurons can rapidly sense metabolic fluctuations in the blood. Others have recently implicated autophagy in central appetite regulation and leptin sensitivity (Park et al., Nature Communications. 2020; 11: 1914). Knockdown of an essential autophagy gene autophagy-related 7 (Atg7), leads to accumulation of p62 in POMC neurons, resulting in an increase in bodyweight and appetite. Besides, it has been shown that amino acid deprivation/imbalance can trigger a reduction in food intake via eIF2α/ATF4 pathway [Maurin et al., Cell Rep. 2014 Feb. 6(3): 438-444]. In our study, mature hypothalamic neurons (after 14 day in vitro culture) were exposed to vehicle or 2 U/mL N-ABD094-rhArg (SEQ ID NO: 50) for 1 hr, 4 hrs, 8 hrs or 24 hrs. After treatment, proteins were harvested from whole cell lysate of neurons and subjected to western blot analysis for examining the short-term effect of arginine depletion on hypothalamic neurons. Autophagy markers (LC3B and p62) were analyzed. […] These findings supported that N-ABD094-rhArg (SEQ ID NO: 50) induced an autophagic flux in hypothalamic neurons."}, "[5]": {"assay": "Insulin tolerance test (ITT)", "type": "in vivo, mouse", "conditions": "17-month old C57BL/6J male mice on chow diet; once a week; at 13 weeks"}, "[6]": {"assay": "Half-life / therapeutic duration in circulation", "parameters": "species or system mice", "conditions": "mouse, in vivo", "from_the_text": "As used herein, the term “half-life” or “½-life” refers to the time that would be required for the concentration of an agent, e.g., a fusion protein or arginine depleting agent as described herein, to fall by half in vitro or in vivo, for example, after injection into a mammal. In certain instances, the concentration of plasma arginine, after injection, is used herein as a proxy indicator of the half-life of the agent. In such instances, the term “therapeutic duration” is used to refer to the length of time a specified dosage of the arginine depleting agent is able to maintain the plasma concentration of arginine below a specified threshold concentration that a desired therapeutic effect is observed. In certain embodiments, the threshold concentration of plasma arginine is below 50 μM, below 40 μM, below 30 μM, below 20 μM, below 10 μM, below 5 μM, below 3 μM, or at a concentration below the detection limit of conventional analytical instrumentation.\nImportantly, the present invention used a new ABD fusion approach to join an ABD and an arginase together so that arginase activity can be retained. Stable and soluble arginase-ABD fusion molecules that can bind to FcRn in a pH-dependent manner were successfully generated, allowing for efficient endosomal recycling. […] Taken together, a variety of different approaches are available for fine-tuning the pharmacokinetic properties of arginases, ensuring appropriate residence time in circulation for different disease conditions. Another key issue in the development of any therapeutic protein is to minimize immunogenicity to avoid adverse effects. Thus, the observed low immunogenicity of human arginase and the successful deimmunization of ABD (e.g. ABD094), which was also used in the present disclosure as gene fusion partner to extend the in vivo half-life, are important."}},
  "note": "“Also recorded” adds a separate entry of the source.",
  "data": [
    {"molecule": "N-ABD094-rhArg: recombinant human arginase fused to albumin binding domain ABD094 (SEQ ID NO: 50); engineered long-acting arginine-depleting enzyme (protein, N-ABD094-rhArg, Synthesized in the Lab, engineered long-acting arginine-depleting enzyme) MHHHHHHDEAVDANSLAEAKEAANAELDSYGVSDFYKRLIDKAKTVEGVEALKDAILAALPSGSNNNNNNGSGGMSAKSRTIGIIGAPFSKGQPRGGVEEGPTVLRKAGLLEKLKEQECDVKDYGDLPFADIPNDSPFQIVKNPRSVGKASEQLAGKVAEVKKNGRISLVLGGDHSLAIGSISGHARVHPDLGVIWVDAHTDINTPLTTTSGNLHGQPVSFLLKELKGKIPDVPGFSWVTPCISAKDIVYIGLRDVDPGEHYILKTLGIKYFSMTEVDRLGIGKVMEETLSYLLGRKKRPIHLSFDVDGLDPSFTPATGTPVVGGLTYREGLYITEEIYKTGLLSGLDIMEVNPSLGKTPEEVTRTVNTAVAITLACFGLAREGNHKPIDYLNPPK", "values": [
      {"measurement": "Kidney and heart mass", "setting": "[1]", "result": "significantly less than that of the vehicle-treated DIO mice"},
      {"measurement": "Mass of perirenal, inguinal and interscapular fat pad, relative to DIO mice treated with vehicle", "setting": "[1]", "result": "less than 20%"},
      {"measurement": "Liver mass", "setting": "[1]; vehicle DIO 4.68 g, lean control 1.73 g", "result": 1.39, "unit": "g"},
      {"measurement": "Barnes maze: exploratory pattern (search mode) on Day 1", "setting": "[2]", "result": "predominately used a serial-type exploratory pattern; also recorded: significantly improve their search mode"},
      {"measurement": "Barnes maze: latency to exit the platform in training period", "setting": "[2]", "result": "could exit the platform significantly earlier than HFD-fed mice treated with vehicle; also recorded: significantly reduce the total latency"},
      {"measurement": "Barnes maze: probe trial Day 5 (short-term memory)", "setting": "[2]", "result": "explored the holes nearest to the target in increasing frequency with the target hole being the most-explored hole"},
      {"measurement": "Barnes maze: probe trial Day 10 (long-term memory)", "setting": "[2]", "result": "Such trends were maintained on Day 10"},
      {"measurement": "Glucose tolerance in GTT", "setting": "[3]; 16-month old DIO C57BL/6J male mice on HFD, once a week, at 12 weeks", "result": "effectively reverse impaired glucose tolerance"},
      {"measurement": "Glucose tolerance in GTT", "setting": "[3]; 17-month old C57BL/6J male mice on chow diet, once a week, at 15 weeks", "result": "to a level better than mice in CD Young (vehicle) group; also recorded: effectively improve glucose tolerance"},
      {"measurement": "Glucose tolerance in GTT", "setting": "[3]; DIO C57BL/6J male mice on HFD, 300 U/week rhArg and/or 300 mg/kg metformin, after 7 weeks", "result": "significant improvement on glucose tolerance"},
      {"measurement": "Glucose tolerance in GTT", "setting": "[3]; DIO C57BL/6J male mice on HFD, 600 U once a week, after 3 weeks (reduced daily food intake experiment)", "result": "improved glucose tolerance"},
      {"measurement": "Glucose tolerance in GTT", "setting": "[3]; DIO C57BL/6J male mice on HFD, 600 U once a week, at 3 weeks (artificial IF experiment)", "result": "significant improvement in glucose tolerance by 3 weeks of treatment"},
      {"measurement": "Glucose tolerance in GTT", "setting": "[3]; DIO C57BL/6J male mice on HFD, about 600 U once a week, at 15 and 31 weeks", "result": "significant improvement in glucose tolerance to a level comparable with the lean control mice; also recorded: effectively reverse impaired glucose tolerance"},
      {"measurement": "Glucose tolerance in GTT", "setting": "[3]; DIO C57BL/6J male mice on HFD, rhArg weekly and/or 0.33 mg/day RA, after 7 weeks", "result": "cannot relieve glucose intolerance"},
      {"measurement": "Glucose tolerance in GTT", "setting": "[3]; DIO ICR female mice on HFD, once a week, at 16 and 30 weeks", "result": "Improved glucose tolerance"},
      {"measurement": "ATF4 level", "setting": "[4]; 24 hrs", "result": "dramatic increase"},
      {"measurement": "Level of LC3B-II", "setting": "[4]; after 1 hr and 4 hrs", "result": "significantly increased"},
      {"measurement": "Phosphorylation level of p70S6K1", "setting": "[4]; after 1 hr, 4 hrs, 8 hrs or 24 hrs", "result": "significantly decreased"},
      {"measurement": "Level of p62", "setting": "[4]; after 4 hrs and 8 hrs", "result": "significantly decreased"},
      {"measurement": "Proportion of glycosylated POMC", "setting": "[4]; after 24 hrs", "result": "significantly increased"},
      {"measurement": "Phosphorylation level of eIF2α", "setting": "[4]; at 8 hrs or 24 hrs", "result": "significant increase"},
      {"measurement": "Insulin sensitivity in ITT", "setting": "[5]", "result": "significantly improve insulin sensitivity; also recorded: effectively improve insulin sensitivity"},
      {"measurement": "Therapeutic duration (and half-life)", "setting": "[6]", "result": "much longer than BHA and BAH"}
    ]}
  ]
}
